Target: T1, C-terminally 3x FLAG-tagged Mtrm (Drosophila melanogaster, UniProt Q23973 1-217)
T1 construct: Matrimony (Mtrm), Drosophila melanogaster, 217 amino acids; Phosphorylation detected by MS on T40, S48, S52, S124 and S137; also called Mtrm-FLAG(3x); mtrm-Flag(3x); source: UASP-mtrm-Flag(3x) expressed in ovaries under the nanos-GAL4 driver in a wild-type background, in ovary extract; not shown: 3x FLAG, C-terminal, kept
T1 sequence (looked up): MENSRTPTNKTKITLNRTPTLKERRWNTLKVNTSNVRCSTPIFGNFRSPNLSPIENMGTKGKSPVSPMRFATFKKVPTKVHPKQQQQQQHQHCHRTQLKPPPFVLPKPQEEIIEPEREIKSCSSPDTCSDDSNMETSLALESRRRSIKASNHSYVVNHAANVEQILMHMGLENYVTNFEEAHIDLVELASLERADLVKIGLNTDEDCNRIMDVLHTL
Experiment: affinity purification with mass spectrometry; anti-FLAG beads, ovary extracts expressing Mtrm-3x FLAG, eluted with 3x FLAG peptide; MudPIT; three independent purifications against five control FLAG immunoprecipitations from w1118; ratio of NSAF values
Conditions: partners not purified

B1: Polo kinase (Polo) (enzyme, UniProt P52304 1-576, looked up)
chain: MAAKPEDKSTDIPDRLVDINQRKTYKRMRFFGKGGFAKCYEIIDVETDDVFAGKIVSKKLMIKHNQKEKTAQEITIHRSLNHPNIVKFHNYFEDSQNIYIVLELCKKRSMMELHKRRKSITEFECRYYIYQIIQGVKYLHDNRIIHRDLKLGNLFLNDLLHVKIGDFGLATRIEYEGERKKTLCGTPNYIAPEILTKKGHSFEVDIWSIGCVMYTLLVGQPPFETKTLKDTYSKIKKCEYRVPSYLRKPAADMVIAMLQPNPESRPAIGQLLNFEFLKGSKVPMFLPSSCLTMAPRIGSNDTIEDSMHRKPLMEMNGIRPDDTRLESTFLKANLHDAITASAQVCRHSEDYRSDIESLYQQLTNLINGKPRILQGNLGDENTDPAAQPLFWISKWVDYSDKYGFGYQLCDEGIGVMFNDTTKLILLPNQINVHFIDKDGKETYMTTTDYCKSLDKKMKLLSYFKRYMIEHLVKAGANNVNIESDQISRMPHLHSWFRTTCAVVMHLTNGSVQLNFSDHMKLILCPRMSAITYMDQEKNFRTYRFSTIVENGVSKDLYQKIRYAQEKLRKMLEKMFT
notes: Polo kinase, Drosophila melanogaster; endogenous protein of ovaries; Polo recovered with Mtrm-3xFLAG was found phosphorylated on T182 at over 80% in all three purifications; source: endogenous, Drosophila ovary extract
Q: For B1, which “stoichiometry N” value is on record?
A: The value was 0.96 ± 0.11.

Reference: article PMC2100146, “The Inhibition of Polo Kinase by Matrimony Maintains G2 Arrest in the Meiotic Cell Cycle” (PLoS Biology, 2007)
